Data on 7 sequences can be found in the Immune Epitope Database (IEDB).

Assay [1] concerns the target HLA-B*07:02. Nature of the assay: IEDB peptide-MHC binding, purified MHC/competitive/fluorescence; filed as Kd, often an IC50 or EC50 that approximates it; ≥ and ≤ were set here for values at or beyond the usual limits of such assays.
Assay [2] concerns the target HLA-B*08:01. The description is as above. The note with it: source organism: Escherichia coli 536.
Assay [3] has as its target HLA-B*51:01. The description is as above. The note with it: source organism: Escherichia coli 536.
Assay [4] has as its target HLA-A*02:12. The experiment in a line: IEDB peptide-MHC binding, purified MHC/direct/fluorescence; filed as Kd, often an IC50 or EC50 that approximates it; ≥ and ≤ were set here for values at or beyond the usual limits of such assays.
Assay [5] addresses HLA-A*02:16. The assay is described as above.
The target of assay [6] is HLA-A*02:19. The assay is described as above.
Assay [7] deals with HLA-A*03:01. The description is as above.
The target in assay [8] is HLA-A*24:03. The assay is described as above.
The target in assay [9] is HLA-A*26:01. Described as above.
Assay [10] concerns the target HLA-B*15:01. Described as above.
Assay [11] deals with HLA-B*18:01. The description is as above.
Assay [12] concerns the target HLA-B*27:03. Described as above.
Assay [13] has as its target HLA-B*46:01. The description is as above.
Assay [14] concerns the target HLA-B*51:01. The description is as above. The note with it: source organism: Encephalitozoon cuniculi GB-M1.
The target of assay [15] is HLA-B*57:01. Described as above.
Assay [16] has as its target HLA-A*01:01. The description is as above. The note with it: source organism: Burkholderia mallei.
In assay [17] the target is HLA-A*11:01. Described as above. To be noted: source organism: Burkholderia mallei.
For assay [18], the target named is HLA-A*31:01. The description is as above. The note with it: source organism: Burkholderia mallei.
Assay [19] addresses HLA-A*69:01. The assay is described as above.
Assay [20] addresses HLA-B*08:02. Described as above. The note with it: source organism: Burkholderia mallei ATCC 23344.
For assay [21], the target named is HLA-B*15:17. Described as above.
Assay [22] concerns the target HLA-B*27:05. The description is as above. To be noted: source organism: Burkholderia mallei.
Assay [23] concerns the target HLA-B*39:01. The assay is described as above.
The target of assay [24] is HLA-B*40:01. The description is as above. The note with it: source organism: Burkholderia mallei.
The target in assay [25] is HLA-B*48:01. Described as above. The note with it: source organism: Burkholderia mallei.
For assay [26], the target named is HLA-B*58:01. The description is as above. The note with it: source organism: Burkholderia mallei.
The target in assay [27] is HLA-A*02:01. Nature of the assay: IEDB peptide-MHC binding, purified MHC/competitive/fluorescence; filed as Kd, often an IC50 or EC50 that approximates it; ≥ and ≤ were set here for values at or beyond the usual limits of such assays. To be noted: source organism: Burkholderia mallei NCTC 10229.
The target of assay [28] is HLA-A*02:06. The description is as above. To be noted: source organism: Burkholderia mallei NCTC 10229.
Assay [29] concerns the target HLA-A*02:01. Nature of the assay: IEDB peptide-MHC binding, purified MHC/direct/fluorescence; filed as Kd, often an IC50 or EC50 that approximates it; ≥ and ≤ were set here for values at or beyond the usual limits of such assays. The note with it: source organism: Yersinia enterocolitica subsp. enterocolitica 8081.
The target in assay [30] is HLA-A*02:03. Described as above. The note with it: source organism: Yersinia enterocolitica subsp. enterocolitica 8081.
The target of assay [31] is HLA-A*02:11. The assay is described as above. The note with it: source organism: Yersinia enterocolitica subsp. enterocolitica 8081.
Assay [32] has as its target HLA-A*68:02. The description is as above. The note with it: source organism: Yersinia enterocolitica subsp. enterocolitica 8081.
The target in assay [33] is HLA-A*01:01. The experiment in a line: IEDB peptide-MHC binding, purified MHC/competitive/fluorescence; filed as Kd, often an IC50 or EC50 that approximates it; ≥ and ≤ were set here for values at or beyond the usual limits of such assays. To be noted: source organism: Yersinia pestis Nepal516.
Assay [34] addresses HLA-A*03:01. The description is as above. To be noted: source organism: Yersinia pestis Nepal516.
Assay [35] concerns the target HLA-B*15:01. Described as above. The note with it: source organism: Yersinia pestis Nepal516.
The mark [36] stands for this setting: source organism: Encephalitozoon cuniculi GB-M1.
[37] abbreviates: source organism: Burkholderia mallei.
Where [38] appears, read: source organism: Burkholderia mallei ATCC 23344.
[39] abbreviates: source organism: Yersinia enterocolitica subsp. enterocolitica 8081.
The mark [40] stands for this setting: source organism: Mycobacterium tuberculosis.

For HPYKIPATV, the Kd in [1] (source organism: Escherichia coli 536) was found to be 0.197 µM; in [2], 0.398 µM; in assay [3] it was 0.309 µM.

Take HPYVFCALL: the Kd in assay [4] (setting [36]), in assay [5] (setting [36]), in [6] (setting [36]), in assay [7] (setting [36]), in [8] (setting [36]) and in assay [9] (setting [36]) was no less than 20 µM in each case. Also, the Kd in [10] (setting [36]) was no less than 20 µM; in [11] (setting [36]) it was no less than 20 µM; in assay [12] (setting [36]), no less than 20 µM; in assay [13] (setting [36]), no less than 20 µM; in assay [14], 2.92 µM; in assay [15] (setting [36]), no less than 20 µM.

As to IYDFYNAEY, the Kd is 1.76 µM in assay [16]; no less than 20 µM in assay [7] (setting [37]); no less than 20 µM in [17]; 0.091 µM in assay [9] (setting [38]); no less than 20 µM in assay [18]; no less than 20 µM in assay [19] (setting [37]). Moreover, the Kd in assay [20] is no less than 20 µM; in [10] (setting [37]), no less than 20 µM; in [21] (setting [37]), 5.09 µM; in assay [22] it was no less than 20 µM; in [23] (setting [38]) it was no less than 20 µM; in assay [24] it was no less than 20 µM. Besides, the Kd in [25] was no less than 20 µM; in [15] (setting [37]), no less than 20 µM; in assay [26], no less than 20 µM; in assay [27], 0.138 µM; in [28] it was 0.0534 µM.

With KSRQGDTKV, the Kd in [29], in [30], in [31], in assay [4] (setting [39]), in assay [5] (setting [39]) and in assay [6] (setting [39]) was no less than 20 µM throughout. The equilibrium dissociation constant (Kd) in [7] (setting [39]), in assay [8] (setting [39]), in assay [9] (setting [39]), in [32], in assay [19] (setting [39]) and in assay [10] (setting [39]) was no less than 20 µM throughout. The Kd is 0.28 µM in assay [21] (setting [39]); no less than 20 µM in assay [11] (setting [39]); no less than 20 µM in [12] (setting [39]); no less than 20 µM in assay [23] (setting [39]); no less than 20 µM in assay [13] (setting [39]); no less than 20 µM in assay [15] (setting [39]).

In [1] (source organism: Salmonella enterica subsp. enterica serovar Typhi), LPSWLLAPV returned a Kd of 0.066 µM.

As to NTLGITHLY, the Kd in assay [33] was 0.0448 µM; in [34] it was no less than 20 µM; in assay [35] it was 3.02 µM.

In the case of SIYYTLVRM, the Kd is no less than 20 µM in assay [4] (setting [40]); no less than 20 µM in [6] (setting [40]); no less than 20 µM in [9] (setting [40]); no less than 20 µM in [10] (setting [40]); 0.256 µM in assay [21] (setting [40]); no less than 20 µM in [11] (setting [40]). Moreover, the Kd in [12] (setting [40]), in assay [23] (setting [40]), in assay [13] (setting [40]) and in [15] (setting [40]) was no less than 20 µM in each case.

One may read the Kd as a measure of binding affinity in units of concentration.
